Test results as given in US20160208018A1 (JUNO THERAPEUTICS, published 2016).
Like-named read-outs stand apart in the source and are kept apart here.

Experiments:
[1] = molecular target: T1, Mouse ROR1 (mouse, UniProt Q9Z139 30-937); assay: inferred from IFN-gamma release of CAR T cells on K562/mouse ROR1 cells
T1 construct: also called mROR1; K562/mouse ROR1
Experimental: Cytokine release was assessed following incubation of the CAR-expressing cells with either K562/human ROR1 (hROR1) or K562/mouse ROR1 (mROR1) antigen-expressing cells. Transduced CD8+ T cells were co-cultured with antigen-expressing cells at a single effector to target (E:T). The co-cultured cells were incubated for about 24 hours, and then supernatants were collected for measurement of IFN-γ using a cytokine immunoassay.

[2] = molecular target: T2, Human ROR1 (receptor tyrosine kinase-like orphan receptor 1) (human, UniProt Q01973 30-937); assay: flow cytometry on ROR1-expressing K562 and CHOK1 cells (n = 1)
T2 construct: also called hROR1; K562/ROR1
T2 sequence (Q01973 30-937): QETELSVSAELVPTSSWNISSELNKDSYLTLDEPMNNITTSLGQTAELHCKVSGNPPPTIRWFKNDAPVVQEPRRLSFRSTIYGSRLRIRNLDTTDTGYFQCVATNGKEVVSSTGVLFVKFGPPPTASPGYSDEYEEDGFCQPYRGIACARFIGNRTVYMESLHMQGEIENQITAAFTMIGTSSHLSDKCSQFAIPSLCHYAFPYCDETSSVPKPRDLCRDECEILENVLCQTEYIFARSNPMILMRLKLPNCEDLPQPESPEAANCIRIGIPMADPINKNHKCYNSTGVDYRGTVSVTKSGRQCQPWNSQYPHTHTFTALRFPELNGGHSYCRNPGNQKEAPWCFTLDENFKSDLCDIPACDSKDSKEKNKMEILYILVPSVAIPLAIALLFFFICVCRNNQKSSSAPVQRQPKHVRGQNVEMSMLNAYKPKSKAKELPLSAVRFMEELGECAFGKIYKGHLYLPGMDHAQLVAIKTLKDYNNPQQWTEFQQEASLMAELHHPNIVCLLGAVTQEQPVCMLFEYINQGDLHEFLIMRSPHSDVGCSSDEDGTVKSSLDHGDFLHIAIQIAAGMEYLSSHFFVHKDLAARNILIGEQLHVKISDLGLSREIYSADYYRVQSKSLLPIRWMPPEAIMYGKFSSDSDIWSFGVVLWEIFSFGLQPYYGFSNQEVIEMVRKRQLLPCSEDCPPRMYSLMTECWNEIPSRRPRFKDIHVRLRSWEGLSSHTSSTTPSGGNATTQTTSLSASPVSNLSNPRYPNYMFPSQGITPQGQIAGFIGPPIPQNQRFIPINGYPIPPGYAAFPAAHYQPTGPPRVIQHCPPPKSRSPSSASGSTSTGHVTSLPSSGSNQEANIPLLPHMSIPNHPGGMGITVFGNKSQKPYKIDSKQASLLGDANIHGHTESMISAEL

[3] = molecular target: T2, Human ROR1 (receptor tyrosine …); assay: flow cytometry competition, competitor R12 scFv on ROR1-expressing cells (n = 1)
Experimental: (§1) Assays also were performed to assess competition of the clones with the reference antibody (R12 scFv), for binding to ROR1-expressing cells. VH clones were titrated against 2 nM Myc-R12 on ROR1/K562 cells and competition assessed with an anti-Myc-Alexa647 secondary antibody, and the half maximal inhibitory concentration (IC₅₀) determined for respective clones.
(§2) Assays also were performed to assess competition (measured as half maximal inhibitory concentration (IC₅₀)) of the clones with the R12 scFv reference antibody for binding to ROR1-expressing cells, as described in Example 1. Percent (%) max ROR1 and % max competition, as compared to the R12 scFv reference antibody, were determined as described in Example 1.

[4] = molecular target: T2, Human ROR1 (receptor tyrosine …); assay: flow cytometry on ROR1-expressing cells; predicted plateau relative to R12 scFv = 100%
Experimental: (§3) Additionally, percent (%) maximum (max) binding to ROR1-expressing cells and % max competition with the reference antibody (R12 scFv) were calculated. Percent max binding and competition values were calculated based on predicted plateaus (measured by Prism® using four parameter non-linear regression), relative to values for R12 scFv binding and inhibition, respectively, assigned as 100% in each study.
as §2

[5] = molecular target: T2, Human ROR1 (receptor tyrosine …); assay: competition with R12 scFv on ROR1-expressing cells; predicted plateau relative to R12 scFv = 100%
Experimental: as §3, §2

[6] = molecular target: T2, Human ROR1 (receptor tyrosine …); assay: flow cytometry on ROR1-expressing K562 and CHOK1 cells (n = 1); remark: listed apart in the source
[7] = molecular target: T2, Human ROR1 (receptor tyrosine …); assay: flow cytometry competition, competitor 2 nM Myc-R12 scFv on ROR1/K562 cells (n = 1)
Experimental: as §1

[8] = molecular target: T2, Human ROR1 (receptor tyrosine …); assay: flow cytometry on ROR1-expressing cells; predicted plateau relative to R12 scFv = 100%; remark: listed apart in the source
Experimental: as §3

[9] = molecular target: T2, Human ROR1 (receptor tyrosine …); assay: competition with Myc-R12 scFv on ROR1/K562 cells; predicted plateau relative to R12 scFv = 100%
Experimental: as §1, §3

T1 sequence (Q9Z139 30-937): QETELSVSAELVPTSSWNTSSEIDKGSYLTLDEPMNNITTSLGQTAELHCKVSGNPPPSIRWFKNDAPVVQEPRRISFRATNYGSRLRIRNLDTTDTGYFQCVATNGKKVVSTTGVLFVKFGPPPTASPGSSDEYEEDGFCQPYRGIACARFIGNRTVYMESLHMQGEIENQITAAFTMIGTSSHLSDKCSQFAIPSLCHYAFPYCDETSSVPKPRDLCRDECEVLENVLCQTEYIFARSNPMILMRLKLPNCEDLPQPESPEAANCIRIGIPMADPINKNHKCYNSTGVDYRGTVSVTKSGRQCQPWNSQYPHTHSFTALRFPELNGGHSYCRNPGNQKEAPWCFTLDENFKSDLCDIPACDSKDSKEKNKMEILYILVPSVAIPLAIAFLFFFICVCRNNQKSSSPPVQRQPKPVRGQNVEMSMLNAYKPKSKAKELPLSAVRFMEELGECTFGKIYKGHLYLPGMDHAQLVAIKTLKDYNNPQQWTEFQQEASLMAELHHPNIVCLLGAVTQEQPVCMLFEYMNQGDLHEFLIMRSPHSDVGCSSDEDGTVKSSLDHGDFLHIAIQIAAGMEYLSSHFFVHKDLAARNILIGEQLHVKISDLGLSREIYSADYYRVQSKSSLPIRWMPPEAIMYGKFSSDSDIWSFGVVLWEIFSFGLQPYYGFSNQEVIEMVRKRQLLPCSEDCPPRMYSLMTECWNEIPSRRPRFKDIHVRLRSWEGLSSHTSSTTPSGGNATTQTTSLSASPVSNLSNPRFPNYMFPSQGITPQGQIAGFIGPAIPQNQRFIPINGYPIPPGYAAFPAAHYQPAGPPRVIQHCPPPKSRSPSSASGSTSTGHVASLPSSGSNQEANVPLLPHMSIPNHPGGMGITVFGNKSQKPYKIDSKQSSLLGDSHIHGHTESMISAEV

binding result [1] | EC50 [2] [nM] | IC50 [3] [nM] | % Max Binding [4] [%] | % Max Competition [5] [%] | EC50 [6] [nM] | IC50 [7] [nM] | % Max Binding [8] [%] | % Max Competition [9] [%] | Binder
binds | – | – | – | – | – | – | – | – | CAR containing Clone 298 scFv (VH-VL) (other, Chimeric antigen receptor expressed on primary human CD8+ T cells; tEGFR marker is split off by T2A; also called 298 CAR; not shown: Ig-derived hinge only spacer, human CD28-derived transmembrane domain, human 4-1BB-derived intracellular signaling domai) EVQLVESGGGLVQPGRSLRLSCTASGFTFGDYAMSWVRQAPGKGLEWVSSISGSGRSTDHADYVKGRFTISRDNSKNTVYLQMNRLRAEDTAVYYCAKVSNYEYYFDYWAQGTLVTVSSGGGGSGGGGSGGGGSEIVLTQSPSVSVAPGQTARITCGGSNIGSESVNWYQWKSGQVPVLVVSDTTDRPSGIPGRFTGTRSGTTATLTISGVEAGDEADYHCQVWDDTGDHPVFGGGTKLTVL
– | 5.9 | 41.3 | 96 | 88 | – | – | – | – | Clone 298 scFv (scFv) scFv: EVQLVESGGGLVQPGRSLRLSCTASGFTFGDYAMSWVRQAPGKGLEWVSSISGSGRSTDHADYVKGRFTISRDNSKNTVYLQMNRLRAEDTAVYYCAKVSNYEYYFDYWAQGTLVTVSSGGGGSGGGGSGGGGSEIVLTQSPSVSVAPGQTARITCGGSNIGSESVNWYQWKSGQVPVLVVSDTTDRPSGIPGRFTGTRSGTTATLTISGVEAGDEADYHCQVWDDTGDHPVFGGGTKLTVL
binds | – | – | – | – | – | – | – | – | CAR containing Clone 83B scFv (VH-VL) (other, Chimeric antigen receptor expressed on primary human CD8+ T cells; tEGFR marker is split off by T2A; also called 83B CAR; not shown: Ig-derived hinge only spacer, human CD28-derived transmembrane domain, human 4-1BB-derived intracellular signaling domai) QVQLVQSGAEVKKPGASVKVSCKASGYTFTSYYMHWVRQAPGQGLEWMGIINPNGGSTSYAQKFQGRVTMTRDTSTSTVYMELSSLRSEDTAVYYCARDSSYDAFDIWGQGTMVTVSSGGGGSGGGGSGGGGSAIQLTQSPSTLSASVGDRVTITCQASQDISNYLNWYQQKPGKAPKLLINDASYLETGVPSRFSGSGSGTDFTLTISSLQPEDIATYYCQQYESLPYTFGQGTKLEIK
– | 6.4 | 15 | 140 | 103 | – | – | – | – | Clone 83B scFv (scFv, De-glycosylation variant of clone 83 (S to N at VH position 53, Kabat)) scFv: QVQLVQSGAEVKKPGASVKVSCKASGYTFTSYYMHWVRQAPGQGLEWMGIINPNGGSTSYAQKFQGRVTMTRDTSTSTVYMELSSLRSEDTAVYYCARDSSYDAFDIWGQGTMVTVSSGGGGSGGGGSGGGGSAIQLTQSPSTLSASVGDRVTITCQASQDISNYLNWYQQKPGKAPKLLINDASYLETGVPSRFSGSGSGTDFTLTISSLQPEDIATYYCQQYESLPYTFGQGTKLEIK
– | 10 | 53.9 | 104 | 71 | – | – | – | – | Clone 366 scFv (scFv, Printed without a linker) scFv: EVQLVESGGGLVQPGRSLRLSCTASGFTFGDYAMSWVRQAPGKGLEWVSSISGSGRSTDHADYVKGRFTISRDNSKNTVYLQMNRLRAEDTAVYYCAKVSNYEYYFDYWAQGTLVTVSSQSVLTQPPSVPGTPGQRVTITCSGSRFNIGSNTVNWYQQLPGTAPKLLIYSNNQRPSGVPDRFSGSKSGTSASLAISGLQSEDEADYYCAAWDDSLNGYVFGTGTKLTVL
– | – | – | – | – | 49.7 | 25.2 | 18 | 18 | Clone V397 (VHH, human VH-only single-domain antibody, no VL) VHH: QITLKESGGGLVQPGGSLRLSCAASGFTFSNAWMSWVRQAPGKGLEWVGRIKSKTDGGTTDYAAPLKGRFTISRDDSKNTLYLQMNSLKTEDTAVYYCARAKGLWFGESYYFDYWGQGTLVTVSS
– | 22.9 | 49.1 | 137 | 80 | – | – | – | – | Clone 350 scFv (scFv) scFv: EVQLVESGGGLVQPGRSLRLSCTASGFTFGDYAMSWVRQAPGKGLEWVSSISGSGRSTDHADYVKGRFTISRDNSKNTVYLQMNRLRAEDTAVYYCAKVSNYEYYFDYWAQGTLVTVSSQPVLTQPHSVSESPGKTVTISCTRSSGSIASNYVQWYQQRPGSAPTTVIYEDNQRPSGVPDRFSGSIDSSSNSASLTISGLKTEDEADYYCQSYDSSNHVFGTGTKLTVL
– | – | – | – | – | 8 | 71.5 | 74 | 58 | Clone V420 (VHH, human VH-only single-domain antibody, no VL) VHH: QVQLVESGGGLVQPGGSLRLSCAASGFTFSSYWMSWVRQAPGKGLEWVANIKQDGSEKYYVDSVKGRFTISRDNAKNSLYLQMNSLRAEDTAVYYCARVNGGEYYFDYWGQGTLVTVSS
– | – | – | – | – | 13.1 | 94.3 | 64 | 48 | Clone V282 (VHH, human VH-only single-domain antibody, no VL) VHH: EVQLVESGGGLVQPGGSLRLSCAASGFTFSSYWMSWVRQAPGKGLEWVANIKQDGSEKYYVDSVKGRFTISRDNAKNSLYLQMNSLRAEDTAVYYCARVRGSEYYFDYWGQGTLVTVSS
– | – | – | – | – | 18.8 | 32.4 | 70 | 31 | Clone V331 (VHH, human VH-only single-domain antibody, no VL) VHH: QVQLQQWGAGLLKPSETLSLTCAVYGGSFSGYYWSWIRQPPGKGLEWIGKINHSGSTNYNPSLKSRVTISVDTSKNQFSLKLSSVTAADTAVYYCARGQIAAHVWGWFDPWGQGTLVTVSS
– | – | – | – | – | 31.5 | – | 22 | – | Clone V278 (VHH, human VH-only single-domain antibody, no VL) VHH: QITLKESGGGLVQPGGSLRLSCAASGFTFSSYAMSWVRQAPGKGLEWVSAISGSGGSTYYADSVKGRFTISRDNSKNTLYLQMNSLRAEDTAVYYCAKERSRWGDNWFDPWGQGTLVTVSS
– | 5.1 | 62.5 | 86 | 97 | – | – | – | – | Clone 305 scFv (scFv) scFv: EVQLVESGGGLVQPGRSLRLSCTASGFTFGDYAMSWVRQAPGKGLEWVSSISGSGRSTDHADYVKGRFTISRDNSKNTVYLQMNRLRAEDTAVYYCAKVSNYEYYFDYWAQGTLVTVSSQSVLTQPPSVSVAPGQTARITCGGNNIGSTSVHWFQQKPGQAPVLVVYDDSDRPSGIPERFSGSNSGNTATLTISRVEAGDEADYYCQVWDNDSDHRVFGGGTKLTVL
– | – | – | – | – | 92.9 | 154 | 122 | 58 | Clone V163 (VHH, human VH-only single-domain antibody, no VL) VHH: QVQLVESGGGLVKPGGSLRLSCAASGFTFSNAWMSWVRQAPGKGLEWVGRIKSKTDGGTTDYAAPVKGRFTISRDDSKNTLYLQMNSLKTEDTAVYYCARQGDSSSWYVEVYYFDYWGQGTLVTVSS
– | – | – | – | – | 23.7 | 5.6 | 29 | 19 | Clone V312 (VHH, human VH-only single-domain antibody, no VL) VHH: EVQLVESGGGLVKPRGSLRLSCAASGFTFSNAWMSWVRQAPGKGLEWVGRIKSKTDGGTTDYAAPVKGRFTISRDDSKNTLYLQMNSLKTEDTAVYYCARTSRGRFLEWLLFDYWGQGTLVTVSS
– | – | – | – | – | – | > 200 | – | – | Clone V128 (VHH, human VH-only single-domain antibody, no VL) VHH: EVQLLESGGGVVQPGGSLRLSCAASGFTFDTFWMSWVRQAPGKGLEWVGRIKSKTDGGTTDYAAPVKGRFTISRDDSKNTLYLQMNSLKTEDTAVYYCARDFGRWSYYFDYWSQGTLVTVSS
– | – | – | – | – | – | > 200 | – | 76 | Clone V181 (VHH, human VH-only single-domain antibody, no VL) VHH: QITLKESGGGLVKPGRSLRLSCTASGFTFGDYAMSWFRQAPGKGLEWVGFIRSKAYGGTTEYAASVKGRFTISRDDSKSIAYLQMNSLKTEDTAVYYCAKDFEVREAHLSYFDYWGQGTLVTVSS
